Numbered stars: 1 amine (or outer) side, 2 acyl side, 3 side chain; on linkers, the order of the positions; unused ones are H or OH. Bridge positions count the residues as written; N and C are the ends. Side chains are listed from the residue outwards. Ends that are not written are not given here. * marks the point of attachment. C20 diacid = O=C(O)CCCCCCCCCCCCCCCCCCC(=O)*; γGlu = O=C(O)[C@H](CCC(=O)[*:2])N[*:1]; AEEA = NCCOCCOCC(=O)O

Assay [1] deals with T1, rat calcitonin receptor (rat, UniProt P32214 25-516).
T1 construct: whole, on cells; Used as membranes prepared from the transfected cells; also called rCTR; rCT
T1 sequence (looked up): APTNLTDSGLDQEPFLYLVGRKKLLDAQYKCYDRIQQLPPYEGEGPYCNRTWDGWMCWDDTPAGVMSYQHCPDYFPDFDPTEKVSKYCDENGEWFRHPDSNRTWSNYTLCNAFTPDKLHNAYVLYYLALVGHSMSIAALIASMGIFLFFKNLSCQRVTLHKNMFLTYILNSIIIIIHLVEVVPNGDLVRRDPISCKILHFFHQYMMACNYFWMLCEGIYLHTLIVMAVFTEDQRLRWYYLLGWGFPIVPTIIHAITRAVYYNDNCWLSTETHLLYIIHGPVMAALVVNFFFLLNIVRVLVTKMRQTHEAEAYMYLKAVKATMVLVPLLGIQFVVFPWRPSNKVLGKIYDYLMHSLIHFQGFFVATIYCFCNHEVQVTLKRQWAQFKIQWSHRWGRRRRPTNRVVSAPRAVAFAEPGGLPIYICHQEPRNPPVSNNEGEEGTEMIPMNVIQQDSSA
Nature of the assay: SPA competition with 125I-calcitonin, membranes with rat calcitonin receptor (Assay VIII).

Assay [2] concerns the target T1, rat calcitonin receptor. Briefly: ratio of binding IC50 at rat calcitonin receptor to IC50 at rat amylin receptor (reference).
Assay [3] addresses T2, human calcitonin receptor (human, UniProt P30988 25-474).
T2 construct: whole, on cells; Used as membranes prepared from the transfected cells; also called hCTR; hCT
T2 sequence (looked up): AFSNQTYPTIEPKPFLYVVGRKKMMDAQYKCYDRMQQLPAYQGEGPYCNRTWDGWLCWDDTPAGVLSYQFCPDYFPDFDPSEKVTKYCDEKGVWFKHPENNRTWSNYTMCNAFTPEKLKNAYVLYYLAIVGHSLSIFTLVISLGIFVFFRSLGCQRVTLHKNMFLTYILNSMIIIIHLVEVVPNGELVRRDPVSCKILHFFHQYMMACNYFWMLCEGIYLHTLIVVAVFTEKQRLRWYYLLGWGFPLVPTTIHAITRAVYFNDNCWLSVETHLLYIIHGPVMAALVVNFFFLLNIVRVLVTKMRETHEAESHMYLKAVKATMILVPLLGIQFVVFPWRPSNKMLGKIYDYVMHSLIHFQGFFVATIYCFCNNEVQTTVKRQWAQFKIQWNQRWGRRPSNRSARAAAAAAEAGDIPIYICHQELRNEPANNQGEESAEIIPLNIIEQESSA
Nature of the assay: ratio of binding IC50 at human calcitonin receptor to IC50 at human amylin receptor (reference). In outline:
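Competition binding by SPA with cell membranes (35 ng/μL) and SPA beads in 50 mM Hepes pH 7.4 with 1 mM CaCl2, 5 mM MgCl2, 0.1% OA and 0.02% Tween20. Incubated 120 min at 25 °C with shaking, then counted.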

Assay [4] deals with T3, rat amylin receptor (rat calcitonin receptor with rat RAMP 3) (rat, UniProt P32214 25-516; Q9JJ73 23-147).
T3 construct: whole, on cells; Used as membranes prepared from the transfected cells; also called rAmylin-R; rAmylin
T3 sequence (looked up) 1: T1 sequence (looked up)
T3 sequence (looked up) 2: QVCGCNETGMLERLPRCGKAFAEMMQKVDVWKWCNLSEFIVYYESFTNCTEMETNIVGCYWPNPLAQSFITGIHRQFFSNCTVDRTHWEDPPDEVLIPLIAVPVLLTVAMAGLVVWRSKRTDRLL
Briefly: SPA competition with 125I-rat amylin, membranes with rat calcitonin receptor + rat RAMP3 (Assay VI).

The target in assay [5] is T4, human calcitonin receptor (human, UniProt P30988 25-474).
T4 sequence (looked up): T2 sequence (looked up)
Nature of the assay: cell-based or functional assay.

B1: N^-1-[(4S)-4-carboxy-4-(19-carboxynonadecanoylamino)butanoyl]-Gly[Arg1,His14,Arg17,Pro21,Pro27,His34]-h-amylin (peptide)
peptide: {C20 diacid-γGlu}-GRCNTATCATQRLAHFLRHSSPNFGAIPSSTNVGHNTY-NH2
modifications: disulfide 3-8
SMILES: CC[C@H](C)[C@H](NC(=O)[C@H](C)NC(=O)CNC(=O)[C@H](Cc1ccccc1)NC(=O)[C@H](CC(N)=O)NC(=O)[C@@H]1CCCN1C(=O)[C@H](CO)NC(=O)[C@H](CO)NC(=O)[C@H](Cc1c[nH]cn1)NC(=O)[C@H](CCCNC(=N)N)NC(=O)[C@H](CC(C)C)NC(=O)[C@H](Cc1ccccc1)NC(=O)[C@H](Cc1c[nH]cn1)NC(=O)[C@H](C)NC(=O)[C@H](CC(C)C)NC(=O)[C@H](CCCNC(=N)N)NC(=O)[C@H](CCC(N)=O)NC(=O)[C@@H](NC(=O)[C@H](C)NC(=O)[C@@H]1CSSC[C@H](NC(=O)[C@H](CCCNC(=N)N)NC(=O)CNC(=O)CC[C@H](NC(=O)CCCCCCCCCCCCCCCCCCC(=O)O)C(=O)O)C(=O)N[C@@H](CC(N)=O)C(=O)N[C@@H]([C@@H](C)O)C(=O)N[C@@H](C)C(=O)N[C@@H]([C@@H](C)O)C(=O)N1)[C@@H](C)O)C(=O)N1CCC[C@H]1C(=O)N[C@@H](CO)C(=O)N[C@@H](CO)C(=O)N[C@H](C(=O)N[C@@H](CC(N)=O)C(=O)N[C@H](C(=O)NCC(=O)N[C@@H](Cc1c[nH]cn1)C(=O)N[C@@H](CC(N)=O)C(=O)N[C@H](C(=O)N[C@@H](Cc1ccc(O)cc1)C(N)=O)[C@@H](C)O)C(C)C)[C@@H](C)O
notes: Analogue of human amylin extended by Gly at the N-terminus; disulfide and C-terminal amide as told for h-amylin; also called compound 100
Turning to B1, the half-inhibitory concentration (IC50) (as a rule, the concentration that inhibits the measured activity by half) in assay [1] was determined as 311 nM; in assay [4], 11.2 nM. Moreover, the “Ratio rCT/rAmylin binding” value in assay [2] is 27.7. Moreover, the “Ratio hCT/hAmylin binding” value in assay [3] came to 65.3.

B2: N{-1}-[(4S)-4-carboxy-4-(19-carboxynonadecanoylamino)butanoyl]-Gly[Arg1,His14,Arg17,Pro21,Pro27]-h-amylin (peptide)
peptide: {C20 diacid-γGlu}-GRCNTATCATQRLAHFLRHSSPNFGAIPSSTNVGSNTY-NH2
modifications: disulfide 3-8
SMILES: CC[C@H](C)[C@H](NC(=O)[C@H](C)NC(=O)CNC(=O)[C@H](Cc1ccccc1)NC(=O)[C@H](CC(N)=O)NC(=O)[C@@H]1CCCN1C(=O)[C@H](CO)NC(=O)[C@H](CO)NC(=O)[C@H](Cc1c[nH]cn1)NC(=O)[C@H](CCCNC(=N)N)NC(=O)[C@H](CC(C)C)NC(=O)[C@H](Cc1ccccc1)NC(=O)[C@H](Cc1c[nH]cn1)NC(=O)[C@H](C)NC(=O)[C@H](CC(C)C)NC(=O)[C@H](CCCNC(=N)N)NC(=O)[C@H](CCC(N)=O)NC(=O)[C@@H](NC(=O)[C@H](C)NC(=O)[C@@H]1CSSC[C@H](NC(=O)[C@H](CCCNC(=N)N)NC(=O)CNC(=O)CC[C@H](NC(=O)CCCCCCCCCCCCCCCCCCC(=O)O)C(=O)O)C(=O)N[C@@H](CC(N)=O)C(=O)N[C@@H]([C@@H](C)O)C(=O)N[C@@H](C)C(=O)N[C@@H]([C@@H](C)O)C(=O)N1)[C@@H](C)O)C(=O)N1CCC[C@H]1C(=O)N[C@@H](CO)C(=O)N[C@@H](CO)C(=O)N[C@H](C(=O)N[C@@H](CC(N)=O)C(=O)N[C@H](C(=O)NCC(=O)N[C@@H](CO)C(=O)N[C@@H](CC(N)=O)C(=O)N[C@H](C(=O)N[C@@H](Cc1ccc(O)cc1)C(N)=O)[C@@H](C)O)C(C)C)[C@@H](C)O
notes: Analogue of human amylin extended by Gly at the N-terminus; disulfide and C-terminal amide as told for h-amylin; also called compound 99
Turning to B2, the 50% inhibitory concentration (IC50) in assay [1] worked out at 216 nM; in assay [4], 2.7 nM. In assay [2], the “Ratio rCT/rAmylin binding” value was 79.8. The “Ratio hCT/hAmylin binding” value in assay [3] was 100.

B3: N^-1-[(4S)-4-carboxy-4-(19-carboxynonadecanoylamino)butanoyl]-Gly[Arg1,Ala14,Arg17,Pro21,Pro27,His34]-h-amylin (peptide)
peptide: {C20 diacid-γGlu}-GRCNTATCATQRLAAFLRHSSPNFGAIPSSTNVGHNTY-NH2
modifications: disulfide 3-8
SMILES: CC[C@H](C)[C@H](NC(=O)[C@H](C)NC(=O)CNC(=O)[C@H](Cc1ccccc1)NC(=O)[C@H](CC(N)=O)NC(=O)[C@@H]1CCCN1C(=O)[C@H](CO)NC(=O)[C@H](CO)NC(=O)[C@H](Cc1c[nH]cn1)NC(=O)[C@H](CCCNC(=N)N)NC(=O)[C@H](CC(C)C)NC(=O)[C@H](Cc1ccccc1)NC(=O)[C@H](C)NC(=O)[C@H](C)NC(=O)[C@H](CC(C)C)NC(=O)[C@H](CCCNC(=N)N)NC(=O)[C@H](CCC(N)=O)NC(=O)[C@@H](NC(=O)[C@H](C)NC(=O)[C@@H]1CSSC[C@H](NC(=O)[C@H](CCCNC(=N)N)NC(=O)CNC(=O)CC[C@H](NC(=O)CCCCCCCCCCCCCCCCCCC(=O)O)C(=O)O)C(=O)N[C@@H](CC(N)=O)C(=O)N[C@@H]([C@@H](C)O)C(=O)N[C@@H](C)C(=O)N[C@@H]([C@@H](C)O)C(=O)N1)[C@@H](C)O)C(=O)N1CCC[C@H]1C(=O)N[C@@H](CO)C(=O)N[C@@H](CO)C(=O)N[C@H](C(=O)N[C@@H](CC(N)=O)C(=O)N[C@H](C(=O)NCC(=O)N[C@@H](Cc1c[nH]cn1)C(=O)N[C@@H](CC(N)=O)C(=O)N[C@H](C(=O)N[C@@H](Cc1ccc(O)cc1)C(N)=O)[C@@H](C)O)C(C)C)[C@@H](C)O
notes: Analogue of human amylin extended by Gly at the N-terminus; disulfide and C-terminal amide as told for h-amylin
As for B3, the values for the IC50 in assay [1] and in assay [4] were 492 nM and 8.07 nM, respectively. In addition, the “Ratio rCT/rAmylin binding” value in assay [2] worked out at 60.9. The “Ratio hCT/hAmylin binding” value in assay [3] came out at 68.6.

B4: N^ε1-[2-[2-[2-[[(4S)-4-carboxy-4-(19-carboxynonadecanoylamino)butanoyl]amino]ethoxy]ethoxy]acetyl]-[His14,Arg17,Pro21,Pro27,His34]-h-amylin (peptide)
peptide: K([AEEA-γGlu-C20 diacid])CNTATCATQRLAHFLRHSSPNFGAIPSSTNVGHNTY-NH2
modifications: disulfide 2-7; N-terminus assumed
SMILES: CC[C@H](C)[C@H](NC(=O)[C@H](C)NC(=O)CNC(=O)[C@H](Cc1ccccc1)NC(=O)[C@H](CC(N)=O)NC(=O)[C@@H]1CCCN1C(=O)[C@H](CO)NC(=O)[C@H](CO)NC(=O)[C@H](Cc1c[nH]cn1)NC(=O)[C@H](CCCNC(=N)N)NC(=O)[C@H](CC(C)C)NC(=O)[C@H](Cc1ccccc1)NC(=O)[C@H](Cc1c[nH]cn1)NC(=O)[C@H](C)NC(=O)[C@H](CC(C)C)NC(=O)[C@H](CCCNC(=N)N)NC(=O)[C@H](CCC(N)=O)NC(=O)[C@@H](NC(=O)[C@H](C)NC(=O)[C@@H]1CSSC[C@H](NC(=O)[C@@H](N)CCCCNC(=O)COCCOCCNC(=O)CC[C@H](NC(=O)CCCCCCCCCCCCCCCCCCC(=O)O)C(=O)O)C(=O)N[C@@H](CC(N)=O)C(=O)N[C@@H]([C@@H](C)O)C(=O)N[C@@H](C)C(=O)N[C@@H]([C@@H](C)O)C(=O)N1)[C@@H](C)O)C(=O)N1CCC[C@H]1C(=O)N[C@@H](CO)C(=O)N[C@@H](CO)C(=O)N[C@H](C(=O)N[C@@H](CC(N)=O)C(=O)N[C@H](C(=O)NCC(=O)N[C@@H](Cc1c[nH]cn1)C(=O)N[C@@H](CC(N)=O)C(=O)N[C@H](C(=O)N[C@@H](Cc1ccc(O)cc1)C(N)=O)[C@@H](C)O)C(C)C)[C@@H](C)O
notes: Synthetic acylated analogue of human amylin; also called compound 80
In the case of B4, the “Ratio hCT/hAmylin funct.” value in assay [5] came out at 15.4.

B5: N^ε1-[(4S)-4-carboxy-4-(19-carboxynonadecanoylamino)butanoyl]-[His14,Arg17,Pro21,Pro27,His34]-h-amylin (peptide)
peptide: K([γGlu-C20 diacid])CNTATCATQRLAHFLRHSSPNFGAIPSSTNVGHNTY-NH2
modifications: disulfide 2-7; N-terminus assumed
SMILES: CC[C@H](C)[C@H](NC(=O)[C@H](C)NC(=O)CNC(=O)[C@H](Cc1ccccc1)NC(=O)[C@H](CC(N)=O)NC(=O)[C@@H]1CCCN1C(=O)[C@H](CO)NC(=O)[C@H](CO)NC(=O)[C@H](Cc1c[nH]cn1)NC(=O)[C@H](CCCNC(=N)N)NC(=O)[C@H](CC(C)C)NC(=O)[C@H](Cc1ccccc1)NC(=O)[C@H](Cc1c[nH]cn1)NC(=O)[C@H](C)NC(=O)[C@H](CC(C)C)NC(=O)[C@H](CCCNC(=N)N)NC(=O)[C@H](CCC(N)=O)NC(=O)[C@@H](NC(=O)[C@H](C)NC(=O)[C@@H]1CSSC[C@H](NC(=O)[C@@H](N)CCCCNC(=O)CC[C@H](NC(=O)CCCCCCCCCCCCCCCCCCC(=O)O)C(=O)O)C(=O)N[C@@H](CC(N)=O)C(=O)N[C@@H]([C@@H](C)O)C(=O)N[C@@H](C)C(=O)N[C@@H]([C@@H](C)O)C(=O)N1)[C@@H](C)O)C(=O)N1CCC[C@H]1C(=O)N[C@@H](CO)C(=O)N[C@@H](CO)C(=O)N[C@H](C(=O)N[C@@H](CC(N)=O)C(=O)N[C@H](C(=O)NCC(=O)N[C@@H](Cc1c[nH]cn1)C(=O)N[C@@H](CC(N)=O)C(=O)N[C@H](C(=O)N[C@@H](Cc1ccc(O)cc1)C(N)=O)[C@@H](C)O)C(C)C)[C@@H](C)O
notes: Synthetic acylated analogue of human amylin; also called compound 81
For the molecule B5, in assay [5], the “Ratio hCT/hAmylin funct.” value worked out at 13.3.
